Among the data in patent publication EP2727942A1 are Optical density (OD) values, retold here.

Residue numbers refer to the chain shown, from its start.

Test [1] has as its target recombinant Fc chimeric conjugate of human EGFR (human) (UniProt P00533). The test is described as follows: ELISA, coated antigen, B-cell supernatant, IgG 146,1 ng/ml. Background: An ELISA detects its analyte on a solid surface through an enzyme-linked reagent.
Test [2] concerns the target recombinant Fc chimeric conjugate of human HER3 (human) (UniProt P21860). The description is as above.
Chain of UniProt P21860 (P21860 20-643, change not shown): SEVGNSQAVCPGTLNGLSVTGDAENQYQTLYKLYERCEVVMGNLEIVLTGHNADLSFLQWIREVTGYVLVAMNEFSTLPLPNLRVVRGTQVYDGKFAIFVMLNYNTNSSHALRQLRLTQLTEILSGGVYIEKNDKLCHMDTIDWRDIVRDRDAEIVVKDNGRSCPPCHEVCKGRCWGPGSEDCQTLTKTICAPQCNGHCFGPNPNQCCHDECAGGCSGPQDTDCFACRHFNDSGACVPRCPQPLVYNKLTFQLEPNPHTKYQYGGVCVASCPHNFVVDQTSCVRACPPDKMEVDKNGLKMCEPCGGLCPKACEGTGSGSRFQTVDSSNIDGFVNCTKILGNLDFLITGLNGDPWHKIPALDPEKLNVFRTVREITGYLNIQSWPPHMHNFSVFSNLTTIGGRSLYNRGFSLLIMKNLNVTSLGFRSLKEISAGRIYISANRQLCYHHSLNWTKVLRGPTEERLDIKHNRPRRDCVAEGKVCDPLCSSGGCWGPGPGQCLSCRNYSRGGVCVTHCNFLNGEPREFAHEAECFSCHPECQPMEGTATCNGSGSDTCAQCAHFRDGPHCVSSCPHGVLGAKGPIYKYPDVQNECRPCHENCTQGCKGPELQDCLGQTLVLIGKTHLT
Test [3] concerns the target recombinant Fc chimeric conjugate of human EGFR (human) (UniProt P00533). The test is described as follows: ELISA, coated antigen, B-cell supernatant, IgG 59,9 ng/ml.
Test [4] addresses recombinant Fc chimeric conjugate of human HER3 (human) (UniProt P21860). Described as above.
The target of test [5] is recombinant Fc chimeric conjugate of human EGFR (human) (UniProt P00533). The test is described as follows: ELISA, coated antigen, B-cell supernatant, IgG 565,3 ng/ml.
The target of test [6] is recombinant Fc chimeric conjugate of human HER3 (human) (UniProt P21860). The description is as above.
Test [7] concerns the target recombinant Fc chimeric conjugate of human HER2 (human) (UniProt P04626). The test is described as follows: ELISA, coated antigen, B-cell supernatant, IgG 1912,4 ng/ml.
For test [8], the target named is recombinant Fc chimeric conjugate of human EGFR (human) (UniProt P00533). Described as above.
The target in test [9] is recombinant Fc chimeric conjugate of human HER2 (human) (UniProt P04626). The test is described as follows: ELISA, coated antigen, B-cell supernatant, IgG 1143,3 ng/ml.
In test [10] the target is recombinant Fc chimeric conjugate of human EGFR (human) (UniProt P00533). The test is described as above.
Test [11] shares this target. The test is described as follows: ELISA, coated antigen, B-cell supernatant, IgG 250,4 ng/ml.
Test [12] concerns the target recombinant Fc chimeric conjugate of human HER3 (human) (UniProt P21860). Described as above.
Test [13] deals with recombinant Fc chimeric conjugate of human EGFR (human) (UniProt P00533). The test is described as follows: ELISA, coated antigen, B-cell supernatant, IgG 1170,2 ng/ml.
The target in test [14] is recombinant Fc chimeric conjugate of human HER3 (human) (UniProt P21860). Described as above.

B1: Antibody 52 (antibody, V domains shown)
VH: QSVEESGGRLVTPGTALTLTCTVSGFSLSSGDMSWVRQAPGKGLEWIGYIWSGVSTYYANWAKGRFTISKTSSTTVDLKMTSLTIEDTATYFCARVDFYSYVYSLWGPGTLVTVSS
VL: ALVMTQTPASVEAAVGGTVTIKCQASQSISSCLAWYQQKPGQPPKLLIYSASTLASGVPSRFKGSGSGTEYTLTISGVECADAATYYCQQHYTSNNIDNAFGGGTEVVVK
Consider B1, for which the Optical density (OD) amounted to 2.7 OD in test [1] and 2.1 OD in test [2].

B2: Antibody 60 (antibody, V domains shown)
VH: QSLEESGGRLVTPGGSLTLTCTVSGSDISSYDMSWVRQAPGKGLEWIGYIWSGTTTYYANWAKGRFTISKTSSTTVDLKMTSLTTEDTATYFCATVNIYTYVYSLWGPGTLVTVSS
VL: B1 VL with L2Y, V3D, A13V, S31T, C32A, P40S, S50L, T93S, S94G, I97V
Turning to B2, the Optical density (OD) worked out at 2.8 OD in test [3] and 1 OD in test [4].

B3: Antibody 56 (antibody, V domains shown)
VH: QSLEESGGRLVTPGTPLTLTCTASGFSLSSYDLSWVRQAPGKGLEWIAYIWSGDKTYYANWAKGRFTISKTSSTTVDLKMTSLTTEDTATYFCATVNIYSYVYSLWGPGTLVTVSS
VL: B1 VL with L2Y, V3D, A13V, S31T, C32A, P40S, S50L, T93S, I97V
With B3, the results for the Optical density (OD) in [5] and in test [6] were 3.4 OD and 3.1 OD, respectively.

B4: Antibody 6 (antibody, V domains shown)
VH: QSVEESGGRLVTPGTPLTLTCTVSGFSLSSYTMGWVRQAPGKGLEYIGIINTGGYTYYASWAKGRFTISRTSTTVDLSMTSLTTEDTATYFCARVYPGSSCDLWGQGTLVTVSS
VL: DVVMTQTPASVSEPVGGTVTIKCQASQSISSSYLSWYQQKPGQPPKLLIYRASTLESGVPSRFKGSGSGTEFTLTISDLECADAATYYCQCTDYAGSYVGGAFGGGTEVVVK
Take B4: the Optical density (OD) was found to be 3.2 OD in test [7] and 0.4 OD in test [8].

B5: Antibody 34 (antibody, V domains shown)
VH: QEQLVESGGGLVQPEGSLTLTCKASGFSFSSGYYMCWVRQAPGKGLEWIACIYADSSESTYYASWAKGRFTISKTSSTTVTLQVTSLTAADTATYFCARWGTVAGYSTFNLWGPGTLVTVSS
VL: DVVMTQTPASVSEPVGGTVTIKCQASQSISTALAWYQQKPGQPPKLLIYFTSTLASGVSSRFKGSGSGAEFTLTISDLECADAATYYCQGYYYVTNFPFGGGTEVVVK
For B5, the results for the Optical density (OD) in test [9] and in test [10] were 3.1 OD and 0.3 OD, respectively.

B6: Antibody 55 (antibody, V domains shown)
VH: B2 VH with T56I, N60S, A62P, T95A, V96I
VL: AYDMTQTPASVEAAVGGTVTIKCQASESIYSSLAWYQQKSGQPPKLLIYLASTLASGVPSRFKGSGSGTDYTLTISGVECADAATYYCQQHYSGSNVDNAFGGGTEVVVK
On to B6, for which the Optical density (OD) stood at 2.7 OD in test [11] and 3.3 OD in test [12].

B7: Antibody 32 (antibody, V domains shown)
VH: QSVEESGGRLVTPGTPLTLTCTVSGFSLSSYDMSWVRQAPGKGLEWIGFIDGDSNTYDATWAKGRFTISKTSTTVDLKITSPTTEDTATYFCTRGFNLWGQGTLVTVSS
VL: DVVMTQTPASVSEPVGGTVTIKCQASQSISSYLAWYQQKPGQPPKLLIYKASTLASGVSSRFKGSGSGTEFTLTISDLECADAATYYCQCSAGGRSGIGGFGGGTEVVVK
Take B7: the Optical density (OD) in test [13] was 0.3 OD; in [14], 2.3 OD.
